Results published in US20030171565A1.

Key:
[1] = molecular target: protein zero related (PZR), tyrosine-phosphorylated (human) (UniProt O95297); experiment: immuno-depletion of extracts of pervanadate-treated cells with anti-PZR, Western blot of the supernatants
[2] = molecular target: protein zero related (PZR), tyrosine-phosphorylated (human) (UniProt O95297); experiment: immuno-depletion of extracts of pervanadate-treated cells with anti-SHP-2, Western blot of the supernatants

protein zero related (PZR), tyrosine-phosphorylated (human), sequence (O95297 36-269 limits assumed): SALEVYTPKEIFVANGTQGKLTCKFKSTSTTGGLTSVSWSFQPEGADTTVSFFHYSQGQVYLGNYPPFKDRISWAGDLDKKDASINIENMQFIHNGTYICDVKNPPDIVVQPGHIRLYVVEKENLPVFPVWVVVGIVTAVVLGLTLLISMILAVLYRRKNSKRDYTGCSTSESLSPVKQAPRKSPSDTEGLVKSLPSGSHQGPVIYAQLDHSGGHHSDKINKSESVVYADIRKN

## tyrosine phosphatase SHP-2, native full-length form (from UniProt Q06124 2-593) (enzyme)
[1]
  removal of SHP-2 from the extracts on immuno-depletion of PZR: 50%
[2]
  loss of PZR from the extracts on immuno-depletion of SHP-2: > 90%
